Assay results reported in US9057062B2, “Enzyme produced by Arthrobacter globiformis” (MATSUTANI CHEMICAL INDUSTRY CO., LTD., priority 2011, dated 2015).

What was measured:
Assay type in all cases: biochemical, Arthrobacter globiformis M30
[1] = target: ketose 3-epimerase (D-PE) (Arthrobacter globiformis, UniProt A0A1L7NQ96)
[2] = substrate: O=C(CO)[C@H](O)[C@H](O)[C@H](O)CO; assay: Km and Vmax of the present enzyme; conditions: other: 30° C., in the presence of Mg2+ ions
Procedure: (§1) The enzyme reaction was performed at 30° C. for 30 min, and the amount of the enzyme that produced 1 micromole of D-fructose in 1 min under these conditions was taken as one unit. After the reaction, the reaction mixture was put in a boiling liquid for 3 min to quench the reaction. After deionization, the product D-fructose was measured by HPLC analysis. Protein measurement was performed by using the Bradford method, using 5 μL of the enzyme liquid added to a Bradford solution (250 μl) and evenly stirred therein.
(§2) The Km and Vmax of the present enzyme for D-psicose and D-fructose were measured. The measurement was made by measuring enzyme activity at 30° C. in the presence of Mg^2+ ions.

[3] = substrate: O=C(CO)[C@@H](O)[C@H](O)[C@H](O)CO; assay: Km and Vmax of the present enzyme; conditions: other: 30° C., in the presence of Mg2+ ions
Procedure: as §1, §2

| Molecule | Effect of metal ion on enzyme activity [1] | Km [2] [mM] | Vmax [2] [U/mg] | Km [3] [mM] | Vmax [3] [U/mg] |
| --- | --- | --- | --- | --- | --- |
| [Co+2] [Co^2+, divalent cobalt ions] | activatable | – | – | – | – |
| [Mn+2] [Mn^2+, divalent manganese ions] | activatable | – | – | – | – |
| ketose 3-epimerase, purified enzyme (Arthrobacter globiformis) (protein, disrupted with a high-pressure homogenizer to extract the enzyme; made in house; host or cells: Arthrobacter globiformis M30 (native producer); Purified by PEG fractionation, Q-Sepharose ion exchange and RESOURCE PHE hydrophobic chromatography) MKIGCHGLVWTGHFDAEGIRYSVQKTREAGFDLVEFPLMDPFSFDVQTAKSALAEHGLAASASLGLSDATDVSSEDPAVVKAGEELLNRAVDVLAELGATDFCGVIYSAMKKYMEPATAAGLANSKAAVGRVADRASDLGINVSLEVVNRYETNVLNTGRQALAYLEELNRPNLGIHLDTYHMNIEESDMFSPILDTAEALRYVHIGESHRGYLGTGSVDFDTFFKALGRIGYDGPVVFESFSSSVVAPDLSRMLGIWRNLWADNEELGAHANAFIRDKLTAIKTIELH | – | 30.1 | 168 | 31.5 | 68.5 |
